Results from US20160272683A1 (Novo Nordisk, published 2016).
Blank lines part the entries; values can stand above or below the binder they belong to. Numbered stars: 1 amine (or outer) side, 2 acyl side, 3 side chain; on linkers, the order of the positions; unused ones are H or OH. * marks the point of attachment. C20 diacid = O=C(O)CCCCCCCCCCCCCCCCCCC(=O)*; C18 diacid = O=C(O)CCCCCCCCCCCCCCCCC(=O)*; γGlu = O=C(O)[C@H](CCC(=O)[*:2])N[*:1]; C14 diacid = O=C(O)CCCCCCCCCCCCC(=O)*

Legend:
[1] = target: T1, human amylin 3(a) receptor (human calcitonin receptor co-expressed with RAMP-3) (human, UniProt P30988 25-474; O60896 24-148, limits assumed); assay: cell-based or functional assay
T1 sequence (looked up) 1: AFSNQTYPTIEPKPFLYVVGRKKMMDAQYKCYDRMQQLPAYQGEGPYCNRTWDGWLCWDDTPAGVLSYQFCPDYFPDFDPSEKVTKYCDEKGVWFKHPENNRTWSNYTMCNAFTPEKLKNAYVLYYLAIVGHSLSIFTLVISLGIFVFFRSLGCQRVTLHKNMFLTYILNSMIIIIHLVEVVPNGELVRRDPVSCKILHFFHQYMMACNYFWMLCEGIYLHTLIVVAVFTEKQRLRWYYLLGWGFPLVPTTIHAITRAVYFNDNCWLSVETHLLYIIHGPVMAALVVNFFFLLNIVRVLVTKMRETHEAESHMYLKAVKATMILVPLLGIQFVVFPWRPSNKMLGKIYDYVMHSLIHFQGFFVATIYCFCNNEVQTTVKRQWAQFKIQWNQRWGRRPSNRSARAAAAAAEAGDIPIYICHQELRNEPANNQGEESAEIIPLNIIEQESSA
T1 sequence (looked up) 2: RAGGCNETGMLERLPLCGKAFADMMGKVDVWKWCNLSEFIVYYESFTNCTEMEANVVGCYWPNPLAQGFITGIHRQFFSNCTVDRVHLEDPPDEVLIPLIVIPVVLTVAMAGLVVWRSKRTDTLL

[2] = target: T2, human calcitonin receptor (human, UniProt P30988 25-474); assay: cell-based or functional assay
T2 sequence (looked up): T1 sequence (looked up) 1

B3: [N-terminal(C18 diacid), 6H]mimylin (peptide)
peptide: {C18 diacid}-EASELHTAALGRLSAELHELATLPRTETGPESP-NH2
SMILES: CC(C)C[C@H](NC(=O)[C@H](C)NC(=O)[C@H](C)NC(=O)[C@@H](NC(=O)[C@H](Cc1c[nH]cn1)NC(=O)[C@H](CC(C)C)NC(=O)[C@H](CCC(=O)O)NC(=O)[C@H](CO)NC(=O)[C@H](C)NC(=O)[C@H](CCC(=O)O)NC(=O)CCCCCCCCCCCCCCCCC(=O)O)[C@@H](C)O)C(=O)NCC(=O)N[C@@H](CCCNC(=N)N)C(=O)N[C@@H](CC(C)C)C(=O)N[C@@H](CO)C(=O)N[C@@H](C)C(=O)N[C@@H](CCC(=O)O)C(=O)N[C@@H](CC(C)C)C(=O)N[C@@H](Cc1c[nH]cn1)C(=O)N[C@@H](CCC(=O)O)C(=O)N[C@@H](CC(C)C)C(=O)N[C@@H](C)C(=O)N[C@H](C(=O)N[C@@H](CC(C)C)C(=O)N1CCC[C@H]1C(=O)N[C@@H](CCCNC(=N)N)C(=O)N[C@H](C(=O)N[C@@H](CCC(=O)O)C(=O)N[C@H](C(=O)NCC(=O)N1CCC[C@H]1C(=O)N[C@@H](CCC(=O)O)C(=O)N[C@@H](CO)C(=O)N1CCC[C@H]1C(N)=O)[C@@H](C)O)[C@@H](C)O)[C@@H](C)O
hAmylin-R funct. EC50 (pM) [1]: 15 pM
hCTR funct. EC50 (pM) [2]: 9 pM

B4: [N-terminal(C18 diacid), 5V, 9V]mimylin (peptide)
peptide: {C18 diacid}-EASEVSTAVLGRLSAELHELATLPRTETGPESP-NH2
SMILES: CC(C)C[C@H](NC(=O)[C@H](CCC(=O)O)NC(=O)[C@H](Cc1c[nH]cn1)NC(=O)[C@H](CC(C)C)NC(=O)[C@H](CCC(=O)O)NC(=O)[C@H](C)NC(=O)[C@H](CO)NC(=O)[C@H](CC(C)C)NC(=O)[C@H](CCCNC(=N)N)NC(=O)CNC(=O)[C@H](CC(C)C)NC(=O)[C@@H](NC(=O)[C@H](C)NC(=O)[C@@H](NC(=O)[C@H](CO)NC(=O)[C@@H](NC(=O)[C@H](CCC(=O)O)NC(=O)[C@H](CO)NC(=O)[C@H](C)NC(=O)[C@H](CCC(=O)O)NC(=O)CCCCCCCCCCCCCCCCC(=O)O)C(C)C)[C@@H](C)O)C(C)C)C(=O)N[C@@H](C)C(=O)N[C@H](C(=O)N[C@@H](CC(C)C)C(=O)N1CCC[C@H]1C(=O)N[C@@H](CCCNC(=N)N)C(=O)N[C@H](C(=O)N[C@@H](CCC(=O)O)C(=O)N[C@H](C(=O)NCC(=O)N1CCC[C@H]1C(=O)N[C@@H](CCC(=O)O)C(=O)N[C@@H](CO)C(=O)N1CCC[C@H]1C(N)=O)[C@@H](C)O)[C@@H](C)O)[C@@H](C)O
hAmylin-R funct. EC50 (pM) [1]: 20 pM
hCTR funct. EC50 (pM) [2]: 14 pM

Binder: {C14 diacid-γGlu}-ASELSTAALGRLSAELHELATLPRTETGPESP-NH2 [[N-terminal(C14 diacid-gGlu), des1]mimylin]
hAmylin-R funct. EC50 (pM) [1]: 8 pM
hCTR funct. EC50 (pM) [2]: 3 pM

B5: [N-terminal(C18 diacid), 32H]mimylin (peptide)
peptide: {C18 diacid}-EASELSTAALGRLSAELHELATLPRTETGPEHP-NH2
SMILES: CC(C)C[C@H](NC(=O)[C@H](C)NC(=O)[C@H](C)NC(=O)[C@@H](NC(=O)[C@H](CO)NC(=O)[C@H](CC(C)C)NC(=O)[C@H](CCC(=O)O)NC(=O)[C@H](CO)NC(=O)[C@H](C)NC(=O)[C@H](CCC(=O)O)NC(=O)CCCCCCCCCCCCCCCCC(=O)O)[C@@H](C)O)C(=O)NCC(=O)N[C@@H](CCCNC(=N)N)C(=O)N[C@@H](CC(C)C)C(=O)N[C@@H](CO)C(=O)N[C@@H](C)C(=O)N[C@@H](CCC(=O)O)C(=O)N[C@@H](CC(C)C)C(=O)N[C@@H](Cc1c[nH]cn1)C(=O)N[C@@H](CCC(=O)O)C(=O)N[C@@H](CC(C)C)C(=O)N[C@@H](C)C(=O)N[C@H](C(=O)N[C@@H](CC(C)C)C(=O)N1CCC[C@H]1C(=O)N[C@@H](CCCNC(=N)N)C(=O)N[C@H](C(=O)N[C@@H](CCC(=O)O)C(=O)N[C@H](C(=O)NCC(=O)N1CCC[C@H]1C(=O)N[C@@H](CCC(=O)O)C(=O)N[C@@H](Cc1c[nH]cn1)C(=O)N1CCC[C@H]1C(N)=O)[C@@H](C)O)[C@@H](C)O)[C@@H](C)O
hAmylin-R funct. EC50 (pM) [1]: 20 pM
hCTR funct. EC50 (pM) [2]: 17 pM

B6: [N-terminal(C18 diacid), 5H]mimylin (peptide)
peptide: {C18 diacid}-EASEHSTAALGRLSAELHELATLPRTETGPESP-NH2
SMILES: CC(C)C[C@H](NC(=O)[C@H](C)NC(=O)[C@H](C)NC(=O)[C@@H](NC(=O)[C@H](CO)NC(=O)[C@H](Cc1c[nH]cn1)NC(=O)[C@H](CCC(=O)O)NC(=O)[C@H](CO)NC(=O)[C@H](C)NC(=O)[C@H](CCC(=O)O)NC(=O)CCCCCCCCCCCCCCCCC(=O)O)[C@@H](C)O)C(=O)NCC(=O)N[C@@H](CCCNC(=N)N)C(=O)N[C@@H](CC(C)C)C(=O)N[C@@H](CO)C(=O)N[C@@H](C)C(=O)N[C@@H](CCC(=O)O)C(=O)N[C@@H](CC(C)C)C(=O)N[C@@H](Cc1c[nH]cn1)C(=O)N[C@@H](CCC(=O)O)C(=O)N[C@@H](CC(C)C)C(=O)N[C@@H](C)C(=O)N[C@H](C(=O)N[C@@H](CC(C)C)C(=O)N1CCC[C@H]1C(=O)N[C@@H](CCCNC(=N)N)C(=O)N[C@H](C(=O)N[C@@H](CCC(=O)O)C(=O)N[C@H](C(=O)NCC(=O)N1CCC[C@H]1C(=O)N[C@@H](CCC(=O)O)C(=O)N[C@@H](CO)C(=O)N1CCC[C@H]1C(N)=O)[C@@H](C)O)[C@@H](C)O)[C@@H](C)O
hAmylin-R funct. EC50 (pM) [1]: 8 pM
hCTR funct. EC50 (pM) [2]: 6 pM

Other lines, results leading:

hAmylin-R funct. EC50 (pM) [1]: 11 pM
hCTR funct. EC50 (pM) [2]: 7 pM
B1: [N-terminal(C18 diacid), 23Y]mimylin (peptide)
peptide: {C18 diacid}-EASELSTAALGRLSAELHELATYPRTETGPESP-NH2
SMILES: CC(C)C[C@H](NC(=O)[C@H](C)NC(=O)[C@H](C)NC(=O)[C@@H](NC(=O)[C@H](CO)NC(=O)[C@H](CC(C)C)NC(=O)[C@H](CCC(=O)O)NC(=O)[C@H](CO)NC(=O)[C@H](C)NC(=O)[C@H](CCC(=O)O)NC(=O)CCCCCCCCCCCCCCCCC(=O)O)[C@@H](C)O)C(=O)NCC(=O)N[C@@H](CCCNC(=N)N)C(=O)N[C@@H](CC(C)C)C(=O)N[C@@H](CO)C(=O)N[C@@H](C)C(=O)N[C@@H](CCC(=O)O)C(=O)N[C@@H](CC(C)C)C(=O)N[C@@H](Cc1c[nH]cn1)C(=O)N[C@@H](CCC(=O)O)C(=O)N[C@@H](CC(C)C)C(=O)N[C@@H](C)C(=O)N[C@H](C(=O)N[C@@H](Cc1ccc(O)cc1)C(=O)N1CCC[C@H]1C(=O)N[C@@H](CCCNC(=N)N)C(=O)N[C@H](C(=O)N[C@@H](CCC(=O)O)C(=O)N[C@H](C(=O)NCC(=O)N1CCC[C@H]1C(=O)N[C@@H](CCC(=O)O)C(=O)N[C@@H](CO)C(=O)N1CCC[C@H]1C(N)=O)[C@@H](C)O)[C@@H](C)O)[C@@H](C)O

hAmylin-R funct. EC50 (pM) [1]: 9 pM
hCTR funct. EC50 (pM) [2]: 7 pM
B2: [N-terminal(C18 diacid), 8L]mimylin (peptide)
peptide: {C18 diacid}-EASELSTLALGRLSAELHELATLPRTETGPESP-NH2
SMILES: CC(C)C[C@H](NC(=O)[C@H](C)NC(=O)[C@H](CC(C)C)NC(=O)[C@@H](NC(=O)[C@H](CO)NC(=O)[C@H](CC(C)C)NC(=O)[C@H](CCC(=O)O)NC(=O)[C@H](CO)NC(=O)[C@H](C)NC(=O)[C@H](CCC(=O)O)NC(=O)CCCCCCCCCCCCCCCCC(=O)O)[C@@H](C)O)C(=O)NCC(=O)N[C@@H](CCCNC(=N)N)C(=O)N[C@@H](CC(C)C)C(=O)N[C@@H](CO)C(=O)N[C@@H](C)C(=O)N[C@@H](CCC(=O)O)C(=O)N[C@@H](CC(C)C)C(=O)N[C@@H](Cc1c[nH]cn1)C(=O)N[C@@H](CCC(=O)O)C(=O)N[C@@H](CC(C)C)C(=O)N[C@@H](C)C(=O)N[C@H](C(=O)N[C@@H](CC(C)C)C(=O)N1CCC[C@H]1C(=O)N[C@@H](CCCNC(=N)N)C(=O)N[C@H](C(=O)N[C@@H](CCC(=O)O)C(=O)N[C@H](C(=O)NCC(=O)N1CCC[C@H]1C(=O)N[C@@H](CCC(=O)O)C(=O)N[C@@H](CO)C(=O)N1CCC[C@H]1C(N)=O)[C@@H](C)O)[C@@H](C)O)[C@@H](C)O

hAmylin-R funct. EC50 (pM) [1]: 9 pM
hCTR funct. EC50 (pM) [2]: 6 pM
Binder: {C18 diacid}-EASELSTAALGRLSAELHELATLPRTETGSGSP-NH2 [[N-terminal(C18 diacid), 30S, 31G]mimylin]

hAmylin-R funct. EC50 (pM) [1]: 9 pM
hCTR funct. EC50 (pM) [2]: 4 pM
B7: [N-terminal(C18 diacid-gGlu), des1, 30S]mimylin (peptide)
peptide: {C18 diacid-γGlu}-ASELSTAALGRLSAELHELATLPRTETGSESP-NH2
SMILES: CC(C)C[C@H](NC(=O)[C@H](C)NC(=O)[C@H](C)NC(=O)[C@@H](NC(=O)[C@H](CO)NC(=O)[C@H](CC(C)C)NC(=O)[C@H](CCC(=O)O)NC(=O)[C@H](CO)NC(=O)[C@H](C)NC(=O)CC[C@H](NC(=O)CCCCCCCCCCCCCCCCC(=O)O)C(=O)O)[C@@H](C)O)C(=O)NCC(=O)N[C@@H](CCCNC(=N)N)C(=O)N[C@@H](CC(C)C)C(=O)N[C@@H](CO)C(=O)N[C@@H](C)C(=O)N[C@@H](CCC(=O)O)C(=O)N[C@@H](CC(C)C)C(=O)N[C@@H](Cc1c[nH]cn1)C(=O)N[C@@H](CCC(=O)O)C(=O)N[C@@H](CC(C)C)C(=O)N[C@@H](C)C(=O)N[C@H](C(=O)N[C@@H](CC(C)C)C(=O)N1CCC[C@H]1C(=O)N[C@@H](CCCNC(=N)N)C(=O)N[C@H](C(=O)N[C@@H](CCC(=O)O)C(=O)N[C@H](C(=O)NCC(=O)N[C@@H](CO)C(=O)N[C@@H](CCC(=O)O)C(=O)N[C@@H](CO)C(=O)N1CCC[C@H]1C(N)=O)[C@@H](C)O)[C@@H](C)O)[C@@H](C)O

hAmylin-R funct. EC50 (pM) [1]: 11 pM
hCTR funct. EC50 (pM) [2]: 9 pM
Binder: {C20 diacid}-EASELSTAALGRLSAELHELATLPRTETGSGSP-NH2 [[N-terminal(C20 diacid), 30S, 31G]mimylin]
